Assay results as given in article PMC4183432, “Evidence of a Bacterial Receptor for Lysozyme: Binding of Lysozyme to the Anti-σ Factor RsiV Controls Activation of the ECF σ Factor σ^V” (PLoS Genetics, 2014).

Target: T1, GST-RsiV^59–285 (B. subtilis, UniProt O05403 59-285)
T1 construct: plasmid pKBW204 (pDEST15); source: E. coli BL21(DE3), purified (Glutathione HiCap Matrix); not shown: GST, N-terminal, kept
T1 sequence (looked up): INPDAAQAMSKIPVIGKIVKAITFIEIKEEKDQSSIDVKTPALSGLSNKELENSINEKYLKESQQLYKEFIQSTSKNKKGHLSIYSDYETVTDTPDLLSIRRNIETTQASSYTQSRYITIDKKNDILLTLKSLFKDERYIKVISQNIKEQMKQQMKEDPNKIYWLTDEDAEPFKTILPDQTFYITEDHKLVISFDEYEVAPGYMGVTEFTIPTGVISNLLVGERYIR
Assay: pull-down; 2 mg purified GST-RsiV^59–285 on a Glutathione HiCap Matrix column in PBS-EW; 2 mg of HEW lysozyme, human lysozyme or mutanolysin applied; washed with PBS-EW, eluted with TNGT; SDS-PAGE
Settings: both partners purified

B1: human lysozyme (enzyme, UniProt P61626 19-148, looked up)
chain: KVFERCELARTLKRLGMDGYRGISLANWMCLAKWESGYNTRATNYNAGDRSTDYGIFQINSRYWCNDGKTPGAVNACHLSCSALLQDNIADAVACAKRVVRDPQGIRAWVAWRNRCQNRDVRQYVQGCGV
notes: Human lysozyme, a C-type lysozyme (58% identity to HEW lysozyme); also called HUM lysozyme
B1: binds.
